Target: Chicken Best1 residues 1–405 (GgBest1) (chicken)
Test: crystal structure; GgBest1–Fab complex, hanging-drop vapour diffusion; P2_1 form in CYMAL-6 or CYMAL-6-NG, 0–60 mM NaCl, 50 mM sodium acetate pH 4.0, 5% PEG 4000, 20% glycerol; C2 form in DM, 120 mM NaCl, 50 mM Tris pH 8.5, 8.5% PEG 4000, 20% glycerol; sample supplemented with 50 mM GABA

“Chicken Best1 residues 1–405 (GgBest1) (domain or fragment)” showed a stoichiometry N of 5.

— paper PMC4784663
